In patent publication US7407655:

B1: NAP-2 (ligand, human, UniProt P02775 59-128, looked up)
chain: AELRCMCIKTTSGIHPKNIQSLEVIGKGTHCNQVEVIATLKDGRKICLDPDAPRIKKIVQKKLAGDESAD
B2: I309 (ligand, human, UniProt P22362 24-96, looked up)
chain: KSMQVPFSRCCFSFAEQEIPLRAILCYRNTSSICSNEGLIFKLKRGKEACALDTVGWVQRHRKMLRHCPSKRK
B3: PF4 (ligand, human, UniProt P02776 32-101, looked up)
chain: EAEEDGDLQCLCVKTTSQVRPRHITSLEVIKAGPHCPTAQLIATLKNGRKICLDLQAPLYKKIIKKLLES

Molecular target: human CXC Chemokine Receptor 3 (CXCR3) (human) (UniProt P49682)
Test: cell-based or functional assay

Sequence of human CXC Chemokine Receptor 3 (CXCR3) (human) (P49682 whole entry): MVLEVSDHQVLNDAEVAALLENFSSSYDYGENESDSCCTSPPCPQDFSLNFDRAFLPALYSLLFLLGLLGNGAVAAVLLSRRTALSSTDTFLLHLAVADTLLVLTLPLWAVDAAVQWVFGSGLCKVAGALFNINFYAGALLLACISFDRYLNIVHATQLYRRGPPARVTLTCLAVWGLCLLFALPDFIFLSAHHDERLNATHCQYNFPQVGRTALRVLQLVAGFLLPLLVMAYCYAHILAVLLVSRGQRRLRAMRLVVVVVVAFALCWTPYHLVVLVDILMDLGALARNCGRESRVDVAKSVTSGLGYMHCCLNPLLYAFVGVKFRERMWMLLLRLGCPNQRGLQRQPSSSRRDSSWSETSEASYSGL

[Ca^2+]i changes in IP-10/MigR transfectants, > 100 nM:
MCP-3 (from UniProt P80098 24-99) (ligand)
MCP-2 (from UniProt P80075 24-99) (ligand)
eotaxin (from UniProt P51671 24-97) (ligand)
lymphotactin (from UniProt P47992 22-114) (ligand)
GROα (from UniProt P09341 35-107) (ligand)
MIP-1α (from UniProt P10147 24-92) (ligand)
GCP-2 (from UniProt P80162 38-114) (ligand)
MCP-4 (from UniProt Q99616 24-98) (ligand)
RANTES (from UniProt P13501 24-91) (ligand)
MCP-1 (from UniProt P13500 24-99) (ligand)
MIP-1β (from UniProt P13236 24-92) (ligand)
ENA78 (from UniProt P42830 37-114) (ligand)
IL-8 (from UniProt P10145 28-99) (ligand)
B1
B2
B3
